Reference: patent US20150098945A1 (Daiichi Sankyo, published 2015)
One block for each binder: values may come before it.

How the values were obtained:
[1] = biological target: T1, mouse ROBO4 (pCI-mROBO4-transfected HEK293 cells) (mouse, UniProt Q8C310 28-1012); test: flow cytometry (FC500), HEK293 cells transfected with pCI-mROBO4, FITC goat anti-human IgG Fc; control histogram IgG (human IgG)
T1 sequence: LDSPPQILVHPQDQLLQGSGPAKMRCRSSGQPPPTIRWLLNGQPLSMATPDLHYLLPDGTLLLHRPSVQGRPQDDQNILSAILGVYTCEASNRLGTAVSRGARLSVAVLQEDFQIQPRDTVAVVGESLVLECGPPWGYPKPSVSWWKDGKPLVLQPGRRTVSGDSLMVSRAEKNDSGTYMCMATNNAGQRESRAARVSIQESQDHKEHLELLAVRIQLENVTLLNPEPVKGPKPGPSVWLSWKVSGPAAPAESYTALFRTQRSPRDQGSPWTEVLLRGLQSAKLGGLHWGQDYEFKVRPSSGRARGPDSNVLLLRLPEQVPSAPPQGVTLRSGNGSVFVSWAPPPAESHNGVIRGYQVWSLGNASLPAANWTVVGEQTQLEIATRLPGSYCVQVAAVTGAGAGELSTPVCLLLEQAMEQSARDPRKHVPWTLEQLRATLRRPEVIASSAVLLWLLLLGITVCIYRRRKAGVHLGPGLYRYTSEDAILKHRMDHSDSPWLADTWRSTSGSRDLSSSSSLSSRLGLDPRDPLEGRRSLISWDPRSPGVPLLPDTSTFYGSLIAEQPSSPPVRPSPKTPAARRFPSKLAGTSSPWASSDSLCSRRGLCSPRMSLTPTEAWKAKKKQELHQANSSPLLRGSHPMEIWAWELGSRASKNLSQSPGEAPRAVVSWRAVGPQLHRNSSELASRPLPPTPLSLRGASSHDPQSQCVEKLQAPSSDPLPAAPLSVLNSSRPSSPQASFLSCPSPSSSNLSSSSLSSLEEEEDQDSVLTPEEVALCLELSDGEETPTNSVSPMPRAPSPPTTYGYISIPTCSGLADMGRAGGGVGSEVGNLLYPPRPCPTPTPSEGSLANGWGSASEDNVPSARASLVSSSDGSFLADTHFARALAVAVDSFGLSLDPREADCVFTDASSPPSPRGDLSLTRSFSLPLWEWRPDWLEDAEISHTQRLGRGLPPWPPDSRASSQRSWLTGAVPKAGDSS

[2] = biological target: T2, rat ROBO4 (pCI-raROBO4-transfected HEK293 cells) (rat, UniProt Q80W87 38-949 at identity 0.93)); test: flow cytometry (FC500), HEK293 cells transfected with pCI-raROBO4, FITC goat anti-human IgG Fc; control histogram IgG (human IgG)
T2 chain: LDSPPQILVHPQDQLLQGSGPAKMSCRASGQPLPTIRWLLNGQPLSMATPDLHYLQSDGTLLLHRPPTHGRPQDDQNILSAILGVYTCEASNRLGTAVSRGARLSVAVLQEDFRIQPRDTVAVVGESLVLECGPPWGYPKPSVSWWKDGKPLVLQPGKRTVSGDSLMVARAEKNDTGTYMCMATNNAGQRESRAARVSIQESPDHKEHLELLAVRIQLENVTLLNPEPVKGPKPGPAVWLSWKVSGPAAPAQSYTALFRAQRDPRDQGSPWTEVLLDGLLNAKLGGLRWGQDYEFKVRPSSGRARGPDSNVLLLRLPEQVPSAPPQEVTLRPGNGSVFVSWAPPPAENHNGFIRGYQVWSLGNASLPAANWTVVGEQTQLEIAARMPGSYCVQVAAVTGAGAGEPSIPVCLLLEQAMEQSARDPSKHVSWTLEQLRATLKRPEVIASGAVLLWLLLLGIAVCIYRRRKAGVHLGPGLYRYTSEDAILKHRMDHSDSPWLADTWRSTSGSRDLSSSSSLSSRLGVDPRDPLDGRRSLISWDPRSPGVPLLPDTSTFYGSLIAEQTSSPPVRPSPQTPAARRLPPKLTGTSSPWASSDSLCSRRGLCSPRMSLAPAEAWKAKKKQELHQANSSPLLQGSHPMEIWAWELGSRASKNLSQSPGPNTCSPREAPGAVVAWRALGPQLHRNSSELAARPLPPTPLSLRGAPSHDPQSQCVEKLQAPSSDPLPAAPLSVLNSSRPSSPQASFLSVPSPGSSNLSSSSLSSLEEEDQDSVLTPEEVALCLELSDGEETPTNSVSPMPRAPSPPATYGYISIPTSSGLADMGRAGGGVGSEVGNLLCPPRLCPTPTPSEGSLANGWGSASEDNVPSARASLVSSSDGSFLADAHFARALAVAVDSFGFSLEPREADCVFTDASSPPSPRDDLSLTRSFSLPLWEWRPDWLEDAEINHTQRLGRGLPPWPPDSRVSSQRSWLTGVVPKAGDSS

[3] = biological target: T1, mouse ROBO4 (pCI-mROBO4-transfected …); test: flow cytometry, HEK293 cells transfected with pCI-mROBO4, anti-mouse IgG FITC; control histogram IgG (Mouse IgG2a)
Experimental: HEK293 cells were inoculated at a concentration of 1.5×10⁶ cells/dish to a 60-mm dish (manufactured by Corning Inc.) and cultured overnight in a DMEM medium containing 10% FBS at 37° C. under 5% CO₂ conditions. On the next day, the HEK293 cells were transfected with pCI-hROBO4, pCI-mROBO4, pCI-raROBO4, pCI-FLAG-cynoROBO4-1, pCI-FLAG-cynoROBO4-2, pCI-hROBO1, pCI-hROBO2, or pCI-hROBO3 using FuGENE6 Transfection Reagent and further cultured overnight at 37° C. under 5% CO₂ conditions. On the next day, the expression vector-transfected cells were treated with TrypLE Express (manufactured by Life Technologies Corp.), washed with PBS containing 5% FBS, and then suspended in PBS containing 5% FBS. The obtained cell suspension was used in flow cytometry analysis.
Each cell suspension prepared in 4)-3-1 was centrifuged, and the supernatant was removed. Then, MAb1 or a negative control Mouse IgG2a was added at a concentration of 10 μg/mL to 2×10⁵ expression vector-transfected cells, and the resulting suspension was left standing at 4° C. for 1 hour. […] Data was analyzed using Flowjo. The histogram of FITC fluorescence intensity was prepared. The antibody was determined to bind in a cross-species manner when the histogram of MAb1 was shifted to a stronger fluorescence intensity region compared with the histogram of the negative control Mouse IgG2a.

- binding result [1]: no binding (tested: 10 µg/mL)
B1: humanized MAb1 antibody H-2140 (antibody, human IgG2, kappa, V domains shown)
VH: EVQLVESGGGLVQPGGSLRLSCAASGFTFSTYAMSWVRQAPGKRLEWVATISQGGTYTYYPDSVKGRFTISRDNAKNTLYLQMNSLRAEDTAVYYCARLIYYDYLDYWGQGTLVTVSS
VL: DIVMTQSPLSLPVTLGEPASISCRSSQSLENSNGNTYLNWYLQKPGQSPQLLIYRVSNRFSGVPDRFSGSGSGTDFTLKISRVEAEDVGVYYCLQVTHVPWTFGPGTKVDIKR
notes: Human IgG2 / kappa constant regions; also called hMAb1-H4-type heavy chain + hMAb1-L1-type light chain

- binding result [2]: no binding (tested: 10 µg/mL)
B2: humanized MAb1 antibody H-2143 (antibody, human IgG2, kappa, V domains shown)
VH: EVQLVESGGGLVQPGGSLRLSCAASGFTFSTYAMSWVRQAPGKRLEWVATISQGGTYTYYPDSVKGRFTISRDNAKNTLYLQMNSLRAEDTAVYYCARLIYYDYLDYWGQGTLVTVSS
VL: DIVMTQSPLSLPVTLGEPASISCRSSQSLENENKNLYLNWYLQKPGQSPQLLIYRVSNRFSGVPDRFSGSGSGTDFTLKISRVEAEDVGVYYCLQVTHVPWTFGPGTKVDIKR
notes: Human IgG2 / kappa constant regions; also called hMAb1-H4-type heavy chain + hMAb1-L2-type light chain

- binding result [3]: no binding (tested: 10 µg/mL)
B3: anti-ROBO4 mouse monoclonal antibody MAb1 (antibody, mouse IgG1, V domains shown)
VH: EVQLVESGGGLVKPGGSLKLSCAASGFTFSTYAMSWVRQTPEKRLEWVATISNGGTYTYYPDSVKGRFTISRDNAENTLYLQMSSLRSEDTAMYFCARLIYYDYLDYWGHGTTLTVSS
VL: DAVMTQTPLSLPVSLGDQASISCRSSQSLENSNGNTYLNWYFQKPGQSPQLLIYRVSNRFSGVLDRFSGSGSGTDFTLKISRVEAEDFGVYFCLQVTHVPWTFGGGTKLEIKR
notes: Mouse IgG1 (gamma1), kappa light chain, purified from hybridoma supernatant; also called parent antibody MAb1
